B1: recombinant Lu extracellular domain fused with an Fc-Tag (Lu-Fc), P50895 P254H (protein)
chain: EVRLSVPPLVEVMRGKSVILDCTPTGTHDHYMLEWFLTDRSGARPRLASAEMQGSELQVTMHDTRGRSPPYQLDSQGRLVLAEAQVGDERDYVCVVRAGAAGTAEATARLNVFAKPEATEVSPNKGTLSVMEDSAQEIATCNSRNGNPAPKITWYRNGQRLEVPVEMNPEGYMTSRTVREASGLLSLTSTLYLRLRKDDRDASFHCAAHYSLPEGRHGRLDSHTFHLTLHYPTEHVQFWVGSPSTPAGWVREGDTVQLLCRGDGSPSPEYTLFRLQDEQEEVLNVNLEGNLTLEGVTRGQSGTYGCRVEDYDAADDVQLSKTLELRVAYLDPLELSEGKVLSLPLNSSAVVNCSVHGLPTPALRWTKDSTPLGDGPMLSLSSITFDSNGTYVCEASLPTVPVLSRTQNFTLLVQGSPELKTAEIEPKADGSWREGDEVTLICSARGHPDPKLSWSQLGGSPAEPIPGRQGWVSSSLTLKVTSALSRDGISCEASNPHGNKRHVFHFGTVSPQTSQA
B2: recombinant Lu extracellular domain fused with an Fc-Tag (Lu-Fc), P50895 R175N (protein)
chain: EVRLSVPPLVEVMRGKSVILDCTPTGTHDHYMLEWFLTDRSGARPRLASAEMQGSELQVTMHDTRGRSPPYQLDSQGRLVLAEAQVGDERDYVCVVRAGAAGTAEATARLNVFAKPEATEVSPNKGTLSVMEDSAQEIATCNSNNGNPAPKITWYRNGQRLEVPVEMNPEGYMTSRTVREASGLLSLTSTLYLRLRKDDRDASFHCAAHYSLPEGRHGRLDSPTFHLTLHYPTEHVQFWVGSPSTPAGWVREGDTVQLLCRGDGSPSPEYTLFRLQDEQEEVLNVNLEGNLTLEGVTRGQSGTYGCRVEDYDAADDVQLSKTLELRVAYLDPLELSEGKVLSLPLNSSAVVNCSVHGLPTPALRWTKDSTPLGDGPMLSLSSITFDSNGTYVCEASLPTVPVLSRTQNFTLLVQGSPELKTAEIEPKADGSWREGDEVTLICSARGHPDPKLSWSQLGGSPAEPIPGRQGWVSSSLTLKVTSALSRDGISCEASNPHGNKRHVFHFGTVSPQTSQA
B3: recombinant Lu extracellular domain fused with an Fc-Tag (Lu-Fc), P50895 A149D (protein)
chain: EVRLSVPPLVEVMRGKSVILDCTPTGTHDHYMLEWFLTDRSGARPRLASAEMQGSELQVTMHDTRGRSPPYQLDSQGRLVLAEAQVGDERDYVCVVRAGAAGTAEATARLNVFAKPEDTEVSPNKGTLSVMEDSAQEIATCNSRNGNPAPKITWYRNGQRLEVPVEMNPEGYMTSRTVREASGLLSLTSTLYLRLRKDDRDASFHCAAHYSLPEGRHGRLDSPTFHLTLHYPTEHVQFWVGSPSTPAGWVREGDTVQLLCRGDGSPSPEYTLFRLQDEQEEVLNVNLEGNLTLEGVTRGQSGTYGCRVEDYDAADDVQLSKTLELRVAYLDPLELSEGKVLSLPLNSSAVVNCSVHGLPTPALRWTKDSTPLGDGPMLSLSSITFDSNGTYVCEASLPTVPVLSRTQNFTLLVQGSPELKTAEIEPKADGSWREGDEVTLICSARGHPDPKLSWSQLGGSPAEPIPGRQGWVSSSLTLKVTSALSRDGISCEASNPHGNKRHVFHFGTVSPQTSQA
B4: mouse Lu-Fc (MsLu-Fc), Q9R069 D142A; N168R; H247P (protein)
chain: ELHVSVPPRVEVMRGEQVALDCTPREHPEHYVLEWFLVDGTGARHRLASVEPQGSEFLGTVHSLGRVPPYEVDSRGRLVIAKVQVGDGRDYVCVVKAGAAGTSEATSSVRVFATPEATEVSPNKGTLSVMDQFAQEIATCSSRNGNPVPRITWYRNGQRLEVPMEVNQKGYITIRTVREASGLYSLTSTLYLRLHKDDRDANFHCAAHYDLPSGQHGRLDSPTFRLTLHYPTEHVEFWVGSPSTTEGWVREGDAVQLLCQGDGSPSPEYSFFRQQGTQEEQLNVNLKGNLTLERVHRNQSGIYGCRVEDYDADEEVQLVKKLKLHVAYLDPLELSVPEELFVFLNSSSTVVNCSARGLPTPTVRWTKDSVTLADGPMLSLQSVTFDSAGTYTCEASTPTVPLLSRTQSFQLIVQGAPELKPNEIMPKSGNSWTEGDEVMLTCSARGFPEPKLTWSQRGDTPAEPPFEGRGWKSSSLMVKVTSALSREGVSCEASNIHGKKGHVFHFGSVAPQTAQA
B5: mouse Lu-Fc (MsLu-Fc), Q9R069 Q240R (protein)
chain: ELHVSVPPRVEVMRGEQVALDCTPREHPEHYVLEWFLVDGTGARHRLASVEPQGSEFLGTVHSLGRVPPYEVDSRGRLVIAKVQVGDGRDYVCVVKAGAAGTSEATSSVRVFATPEDTEVSPNKGTLSVMDQFAQEIATCSSNNGNPVPRITWYRNGQRLEVPMEVNQKGYITIRTVREASGLYSLTSTLYLRLHKDDRDANFHCAAHYDLPSGRHGRLDSHTFRLTLHYPTEHVEFWVGSPSTTEGWVREGDAVQLLCQGDGSPSPEYSFFRQQGTQEEQLNVNLKGNLTLERVHRNQSGIYGCRVEDYDADEEVQLVKKLKLHVAYLDPLELSVPEELFVFLNSSSTVVNCSARGLPTPTVRWTKDSVTLADGPMLSLQSVTFDSAGTYTCEASTPTVPLLSRTQSFQLIVQGAPELKPNEIMPKSGNSWTEGDEVMLTCSARGFPEPKLTWSQRGDTPAEPPFEGRGWKSSSLMVKVTSALSREGVSCEASNIHGKKGHVFHFGSVAPQTAQA
B6: recombinant Lu extracellular domain fused with an Fc-Tag (Lu-Fc), P50895 H257R (protein)
chain: EVRLSVPPLVEVMRGKSVILDCTPTGTHDHYMLEWFLTDRSGARPRLASAEMQGSELQVTMHDTRGRSPPYQLDSQGRLVLAEAQVGDERDYVCVVRAGAAGTAEATARLNVFAKPEATEVSPNKGTLSVMEDSAQEIATCNSRNGNPAPKITWYRNGQRLEVPVEMNPEGYMTSRTVREASGLLSLTSTLYLRLRKDDRDASFHCAAHYSLPEGRHGRLDSPTFRLTLHYPTEHVQFWVGSPSTPAGWVREGDTVQLLCRGDGSPSPEYTLFRLQDEQEEVLNVNLEGNLTLEGVTRGQSGTYGCRVEDYDAADDVQLSKTLELRVAYLDPLELSEGKVLSLPLNSSAVVNCSVHGLPTPALRWTKDSTPLGDGPMLSLSSITFDSNGTYVCEASLPTVPVLSRTQNFTLLVQGSPELKTAEIEPKADGSWREGDEVTLICSARGHPDPKLSWSQLGGSPAEPIPGRQGWVSSSLTLKVTSALSRDGISCEASNPHGNKRHVFHFGTVSPQTSQA
B7: recombinant Lu extracellular domain fused with an Fc-Tag (Lu-Fc), P50895 S242D (protein)
chain: EVRLSVPPLVEVMRGKSVILDCTPTGTHDHYMLEWFLTDRSGARPRLASAEMQGSELQVTMHDTRGRSPPYQLDSQGRLVLAEAQVGDERDYVCVVRAGAAGTAEATARLNVFAKPEATEVSPNKGTLSVMEDSAQEIATCNSRNGNPAPKITWYRNGQRLEVPVEMNPEGYMTSRTVREASGLLSLTSTLYLRLRKDDRDASFHCAAHYDLPEGRHGRLDSPTFHLTLHYPTEHVQFWVGSPSTPAGWVREGDTVQLLCRGDGSPSPEYTLFRLQDEQEEVLNVNLEGNLTLEGVTRGQSGTYGCRVEDYDAADDVQLSKTLELRVAYLDPLELSEGKVLSLPLNSSAVVNCSVHGLPTPALRWTKDSTPLGDGPMLSLSSITFDSNGTYVCEASLPTVPVLSRTQNFTLLVQGSPELKTAEIEPKADGSWREGDEVTLICSARGHPDPKLSWSQLGGSPAEPIPGRQGWVSSSLTLKVTSALSRDGISCEASNPHGNKRHVFHFGTVSPQTSQA
B8: recombinant Lu extracellular domain fused with an Fc-Tag (Lu-Fc), P50895 R247Q (protein)
chain: EVRLSVPPLVEVMRGKSVILDCTPTGTHDHYMLEWFLTDRSGARPRLASAEMQGSELQVTMHDTRGRSPPYQLDSQGRLVLAEAQVGDERDYVCVVRAGAAGTAEATARLNVFAKPEATEVSPNKGTLSVMEDSAQEIATCNSRNGNPAPKITWYRNGQRLEVPVEMNPEGYMTSRTVREASGLLSLTSTLYLRLRKDDRDASFHCAAHYSLPEGQHGRLDSPTFHLTLHYPTEHVQFWVGSPSTPAGWVREGDTVQLLCRGDGSPSPEYTLFRLQDEQEEVLNVNLEGNLTLEGVTRGQSGTYGCRVEDYDAADDVQLSKTLELRVAYLDPLELSEGKVLSLPLNSSAVVNCSVHGLPTPALRWTKDSTPLGDGPMLSLSSITFDSNGTYVCEASLPTVPVLSRTQNFTLLVQGSPELKTAEIEPKADGSWREGDEVTLICSARGHPDPKLSWSQLGGSPAEPIPGRQGWVSSSLTLKVTSALSRDGISCEASNPHGNKRHVFHFGTVSPQTSQA
B9: recombinant Lu extracellular domain fused with an Fc-Tag (Lu-Fc), P50895 E245S (protein)
chain: EVRLSVPPLVEVMRGKSVILDCTPTGTHDHYMLEWFLTDRSGARPRLASAEMQGSELQVTMHDTRGRSPPYQLDSQGRLVLAEAQVGDERDYVCVVRAGAAGTAEATARLNVFAKPEATEVSPNKGTLSVMEDSAQEIATCNSRNGNPAPKITWYRNGQRLEVPVEMNPEGYMTSRTVREASGLLSLTSTLYLRLRKDDRDASFHCAAHYSLPSGRHGRLDSPTFHLTLHYPTEHVQFWVGSPSTPAGWVREGDTVQLLCRGDGSPSPEYTLFRLQDEQEEVLNVNLEGNLTLEGVTRGQSGTYGCRVEDYDAADDVQLSKTLELRVAYLDPLELSEGKVLSLPLNSSAVVNCSVHGLPTPALRWTKDSTPLGDGPMLSLSSITFDSNGTYVCEASLPTVPVLSRTQNFTLLVQGSPELKTAEIEPKADGSWREGDEVTLICSARGHPDPKLSWSQLGGSPAEPIPGRQGWVSSSLTLKVTSALSRDGISCEASNPHGNKRHVFHFGTVSPQTSQA

biological target: C7 scFv (soluble, purified); assay: competition ELISA; details: chain shown with the change; C7 scFv 0.6 μg/ml mixed with the mutant protein; competition format: a low value means the soluble protein binds the scFv; parent: est. 5; read off a plot
Sequence (chain, as listed by the source, chain 1 of 2): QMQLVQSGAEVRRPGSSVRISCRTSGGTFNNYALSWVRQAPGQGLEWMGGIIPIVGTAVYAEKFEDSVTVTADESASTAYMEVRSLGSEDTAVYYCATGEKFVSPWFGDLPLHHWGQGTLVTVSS
Sequence (chain, as listed by the source, chain 2 of 2): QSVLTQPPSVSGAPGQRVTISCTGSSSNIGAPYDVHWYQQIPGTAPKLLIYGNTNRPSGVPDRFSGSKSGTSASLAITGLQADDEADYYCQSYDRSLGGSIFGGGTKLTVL

First: B1
Second: B2
The other: Relative binding (residual antibody binding to coated antigen with the mutant protein as competitor) of the first is lower: 3% for the first, 4% for the second.

Binder B3 has an other: Relative binding (residual antibody binding to coated antigen with the mutant protein as competitor) of 3%.

same assay, conditions: chain shown with the change; C7 scFv 0.6 μg/ml mixed with the mutant protein; competition format: a low value means the soluble protein binds the scFv; parent: est. 110; read off a plot

In the case of B4, the other: Relative binding (residual antibody binding to coated antigen with the mutant protein as competitor) is reported as 95%.

same assay, conditions: chain shown with the change; mutant protein mixed with diluted C7 scFv; wells coated with Lu-Fc; competition format: a low value means the soluble protein binds the scFv; read off a plot

First: B5
Second: B6
The other: Relative binding (residual antibody binding to coated Lu-Fc with the mutant protein as competitor) of the first is higher: 14% for the first, 3% for the second.

First: B7
Second: B8
The other: Relative binding (residual antibody binding to coated Lu-Fc with the mutant protein as competitor) of the first is lower: 18% for the first, 87% for the second.

Binder B9 has an other: Relative binding (residual antibody binding to coated Lu-Fc with the mutant protein as competitor) of 22%.
